Square brackets hold non-standard residues; d marks the D form. Ends that are not written are not given here. peg8 = octa(ethylene glycol) chain, 8 ethylene glycol units

Assay [1] addresses T1, human IgG antibody (human).
T1 construct: Injected at 10 to 3000 nM over the immobilised ligands in SPR
Briefly: SPR (Biacore), ligand immobilised on CM5. (In general: SPR reads the build-up and loss of mass on a sensor chip optically.)

Assay [2] addresses T2, Bovine Serum Albumin (BSA, manufactured by Sigma-Aldrich) (bovine, UniProt P02769 25-607).
T2 construct: Injected at 1000 nM over the immobilised ligands in SPR (selectivity test)
In words: SPR, ligand immobilised on CM5, BSA injected 10 min at 25 C.

The target of assay [3] is T1, human IgG antibody. Briefly: SPR (Biacore), ligand immobilised on CM5, fit with BIAevaluation 4.1.

T2 sequence (P02769 25-607 limits assumed): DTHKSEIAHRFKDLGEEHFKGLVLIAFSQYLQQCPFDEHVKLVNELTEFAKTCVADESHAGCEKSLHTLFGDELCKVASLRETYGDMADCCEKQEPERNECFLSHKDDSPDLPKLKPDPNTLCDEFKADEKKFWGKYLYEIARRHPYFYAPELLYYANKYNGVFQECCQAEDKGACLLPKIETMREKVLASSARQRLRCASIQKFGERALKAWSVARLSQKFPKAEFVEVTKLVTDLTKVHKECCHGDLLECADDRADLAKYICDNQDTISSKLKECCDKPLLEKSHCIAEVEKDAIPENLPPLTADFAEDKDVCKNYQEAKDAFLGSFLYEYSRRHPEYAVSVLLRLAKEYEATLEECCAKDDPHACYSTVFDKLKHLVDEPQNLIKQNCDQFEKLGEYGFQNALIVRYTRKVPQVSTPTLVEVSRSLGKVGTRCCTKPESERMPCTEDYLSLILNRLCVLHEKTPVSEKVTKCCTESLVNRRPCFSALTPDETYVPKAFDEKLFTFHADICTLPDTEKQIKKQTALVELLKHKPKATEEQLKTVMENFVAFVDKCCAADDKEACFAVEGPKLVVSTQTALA

B1: polypeptide Ac-KKKEQQNAFYKKK (SEQ ID NO: 22) (peptide)
peptide: Ac-KKKEQQNAFYKKK
notes: Synthetic peptide, immobilised on a CM5 sensor chip; also called immobilized carrier V
B1 gave a koff in the assay with human IgG antibody [1] of 0.00015 s⁻¹. Also, the binding result in assay [2] is “no binding (tested: 1000 nM)”.

B2: polypeptide as set forth in SEQ ID NO: 2 (KEQQNAFY) (peptide)
peptide: KEQQNAFY
notes: Synthetic peptide, immobilised on a CM5 sensor chip; also called immobilized carrier B
B2 returned a koff in the assay with human IgG antibody [1] of 0.00013 s⁻¹. For the same molecule, the binding result in assay [2] was “no binding (tested: 1000 nM)”.

B3: polypeptide as set forth in SEQ ID NO: 1 (EQQNAFY) (peptide)
peptide: EQQNAFY
notes: Synthetic peptide, immobilised on a CM5 sensor chip by EDC/NHS coupling; also called polypeptide 1
With B3, the binding result in assay [2] is on record as “no binding (tested: 1000 nM)”. Besides, in the assay with human IgG antibody [3], the koff stood at 0.00017 s⁻¹.

B4: polypeptide as set forth in SEQ ID NO: 12 (DQQSAFY) (peptide)
peptide: DQQSAFY
notes: Synthetic peptide, immobilised on a CM5 sensor chip; also called immobilized carrier L
B4: the koff with human IgG antibody [1] was determined as 0.00015 s⁻¹. Also, the binding result in assay [2] is recorded as “no binding (tested: 1000 nM)”.

B5: polypeptide as set forth in SEQ ID NO: 5 (EGQNAFY) (peptide)
peptide: EGQNAFY
notes: Synthetic peptide, immobilised on a CM5 sensor chip; also called immobilized carrier E
B5: the koff with human IgG antibody [1] stood at 0.0002 s⁻¹. Further, the binding result in assay [2] is “no binding (tested: 1000 nM)”.

B6: polypeptide as set forth in SEQ ID NO: 10 (EQQSAFY) (peptide)
peptide: EQQSAFY
notes: Synthetic peptide, immobilised on a CM5 sensor chip; also called immobilized carrier J
For the molecule B6, the off-rate (koff) with human IgG antibody [1] amounted to 0.00015 s⁻¹. In assay [2], the binding result was “no binding (tested: 1000 nM)”.

B7: polypeptide as set forth in SEQ ID NO: 7 (KKKEQQNAFYEILHKKK) (peptide)
peptide: KKKEQQNAFYEILHKKK
notes: Synthetic peptide, immobilised on a CM5 sensor chip; also called immobilized carrier G
With B7, the koff with human IgG antibody [1] was determined as 0.00016 s⁻¹. Also, in assay [2], the binding result is “no binding (tested: 1000 nM)”.

B8: polypeptide EQQNAFY-NH2 (SEQ ID NO: 19) (peptide)
peptide: EQQNAFY-NH2
notes: Synthetic peptide, immobilised on a CM5 sensor chip; also called immobilized carrier S
In the case of B8, the koff in the assay with human IgG antibody [1] is 0.00015 s⁻¹. Besides, the binding result in assay [2] is “no binding (tested: 1000 nM)”.

B9: polypeptide as set forth in SEQ ID NO: 14 (EAQQSAFY) (peptide)
peptide: EAQQSAFY
notes: Synthetic peptide, immobilised on a CM5 sensor chip; also called immobilized carrier N
In the assay with human IgG antibody [1], B9 came in with a koff of 0.00014 s⁻¹. The binding result in assay [2] was “no binding (tested: 1000 nM)”.

B10: polypeptide as set forth in SEQ ID NO: 16 (EAQQNAFY) (peptide)
peptide: EAQQNAFY
notes: Synthetic peptide, immobilised on a CM5 sensor chip; also called immobilized carrier P
Regarding B10, in the assay with human IgG antibody [1], the koff was determined as 0.00019 s⁻¹. Moreover, in assay [2], the binding result was “no binding (tested: 1000 nM)”.

B11: polypeptide as set forth in SEQ ID NO: 17 (DAQQSAFY) (peptide)
peptide: DAQQSAFY
notes: Synthetic peptide, immobilised on a CM5 sensor chip; also called immobilized carrier Q
The molecule B11 gave a koff with human IgG antibody [1] of 0.00013 s⁻¹. Also, the binding result in assay [2] is on record as “no binding (tested: 1000 nM)”.

B12: polypeptide as set forth in SEQ ID NO: 26 (QQNAFYEI) (peptide)
peptide: QQNAFYEI
notes: Synthetic comparative peptide, immobilised on a CM5 sensor chip; also called immobilized carrier AC
B12 had a koff in the assay with human IgG antibody [1] of 0.00024 s⁻¹.

B13: polypeptide as set forth in SEQ ID NO: 4 (EQQNAFYEILHL) (peptide)
peptide: EQQNAFYEILHL
notes: Synthetic peptide, immobilised on a CM5 sensor chip; also called immobilized carrier D
With B13, the koff in the assay with human IgG antibody [1] worked out at 0.00013 s⁻¹. Besides, the binding result in assay [2] is “no binding (tested: 1000 nM)”.

B14: polypeptide Ac-EQQNAFYEILHK (SEQ ID NO: 21) (peptide)
peptide: Ac-EQQNAFYEILHK
notes: Synthetic peptide, immobilised on a CM5 sensor chip; also called immobilized carrier U
The molecule B14 registered a koff with human IgG antibody [1] of 0.00016 s⁻¹. In addition, the binding result in assay [2] is “no binding (tested: 1000 nM)”.

B15: polypeptide as set forth in SEQ ID NO: 15 (EQSAFY) (peptide)
peptide: EQSAFY
notes: Synthetic peptide, immobilised on a CM5 sensor chip; also called immobilized carrier O
In the assay with human IgG antibody [1], B15 showed a koff of 0.00014 s⁻¹. The binding result in assay [2] is recorded as “no binding (tested: 1000 nM)”.

B16: polypeptide as set forth in SEQ ID NO: 18 (DQSAFY) (peptide)
peptide: DQSAFY
notes: Synthetic peptide, immobilised on a CM5 sensor chip; also called immobilized carrier R
Molecule B16 registered a koff with human IgG antibody [1] of 0.00019 s⁻¹. Moreover, the binding result in assay [2] is “no binding (tested: 1000 nM)”.

B17: polypeptide as set forth in SEQ ID NO: 9 (EQNAFY) (peptide)
peptide: EQNAFY
notes: Synthetic peptide, immobilised on a CM5 sensor chip; also called immobilized carrier I
With B17, the koff with human IgG antibody [1] is 0.00017 s⁻¹. Moreover, the binding result in assay [2] was “no binding (tested: 1000 nM)”.

B18: polypeptide as set forth in SEQ ID NO: 11 (EQQSAFYEILH) (peptide)
peptide: EQQSAFYEILH
notes: Synthetic peptide, immobilised on a CM5 sensor chip; also called immobilized carrier K
In the case of B18, the koff in the assay with human IgG antibody [1] worked out at 0.00018 s⁻¹. Also, the binding result in assay [2] was “no binding (tested: 1000 nM)”.

B19: polypeptide as set forth in SEQ ID NO: 13 (DQQSAFYEILH) (peptide)
peptide: DQQSAFYEILH
notes: Synthetic peptide, immobilised on a CM5 sensor chip; also called immobilized carrier M
Consider B19, for which the koff with human IgG antibody [1] worked out at 0.00015 s⁻¹. The binding result in assay [2] was “no binding (tested: 1000 nM)”.

B20: polypeptide as set forth in SEQ ID NO: 3 (EQQNAFYEILH) (peptide)
peptide: EQQNAFYEILH
notes: Synthetic peptide, immobilised on a CM5 sensor chip; also called immobilized carrier C
On to B20, for which the koff with human IgG antibody [1] was determined as 0.00017 s⁻¹. Moreover, the binding result in assay [2] was “no binding (tested: 1000 nM)”.

B21: polypeptide Ac-KKKEQQNAFYEILHKKK (SEQ ID NO: 23) (peptide)
peptide: Ac-KKKEQQNAFYEILHKKK
notes: Synthetic peptide, immobilised on a CM5 sensor chip; also called immobilized carrier W
On to B21, for which the koff with human IgG antibody [1] amounted to 0.00016 s⁻¹. Further, the binding result in assay [2] is “no binding (tested: 1000 nM)”.

B22: polypeptide as set forth in SEQ ID NO: 6 (KKKEQQNAFYKKK) (peptide)
peptide: KKKEQQNAFYKKK
notes: Synthetic peptide, immobilised on a CM5 sensor chip; also called immobilized carrier F
For the molecule B22, the koff in the assay with human IgG antibody [1] came out at 0.00015 s⁻¹. Besides, the binding result in assay [2] is given as “no binding (tested: 1000 nM)”.

B23: fusion polypeptide Ac-EQQNAFY-(peg)8-K-(peg)8-EQQNAFY (SEQ ID NO: 25) (peptide)
peptide: Ac-EQQNAFY[peg8]K[peg8]EQQNAFY
notes: Synthetic fusion polypeptide, 15 amino acid residues, the two units and the central Lys joined by PEG linkers and not by peptide bonds; immobilised on a CM5 sensor chip; also called immobilized carrier Y
Turning to B23, the koff with human IgG antibody [1] amounted to 0.00019 s⁻¹. The binding result in assay [2] is listed as “no binding (tested: 1000 nM)”.

B24: polypeptide Ac-EQQNAFYK (SEQ ID NO: 20) (peptide)
peptide: Ac-EQQNAFYK
notes: Synthetic peptide, immobilised on a CM5 sensor chip; also called immobilized carrier T
Take B24: the koff with human IgG antibody [1] was found to be 0.00014 s⁻¹. The binding result in assay [2] is listed as “no binding (tested: 1000 nM)”.

B25: polypeptide H2N-(peg)8-EQQNAFYE (SEQ ID NO: 24) (peptide)
peptide: peg8-EQQNAFYE
notes: Synthetic peptide, immobilised on a CM5 sensor chip; also called immobilized carrier X
B25 had a dissociation rate constant (koff) with human IgG antibody [1] of 0.00013 s⁻¹. Moreover, in assay [2], the binding result is given as “no binding (tested: 1000 nM)”.

B26: polypeptide as set forth in SEQ ID NO: 8 (EQQNAFYGGGKGGGEQQNAFY) (peptide)
peptide: EQQNAFYGGGKGGGEQQNAFY
notes: Synthetic fusion polypeptide of two EQQNAFY units with a GGGKGGG linker, immobilised on a CM5 sensor chip; also called immobilized carrier H
Consider B26, for which the koff with human IgG antibody [1] amounted to 0.00015 s⁻¹. Besides, in assay [2], the binding result was “no binding (tested: 1000 nM)”.

By koff is commonly meant the first-order rate constant of dissociation. A high value points to fast dissociation.

Source of the values: patent US20170210777A1 (FUJIFILM, published 2017).
